Results: paper doi:10.1101/2025.01.26.634877 (bioRxiv, 2025)

Target: the molecule itself
Experiment: light scattering

B1: Recombinant mouse neurofilament light chain protein, wild type (NfL-WT) (natural protein, UniProt P08551 1-543, looked up)
chain: MSSFGYDPYFSTSYKRRYVETPRVHISSVRSGYSTARSAYSSYSAPVSSSLSVRRSYSSSSGSLMPSLENLDLSQVAAISNDLKSIRTQEKAQLQDLNDRFASFIERVHELEQQNKVLEAELLVLRQKHSEPSRFRALYEQEIRDLRLAAEDATNEKQALQGEREGLEETLRNLQARYEEEVLSREDAEGRLMEARKGADEAALARAELEKRIDSLMDEIAFLKKVHEEEIAELQAQIQYAQISVEMDVSSKPDLSAALKDIRAQYEKLAAKNMQNAEEWFKSRFTVLTESAAKNTDAVRAAKDEVSESRRLLKAKTLEIEACRGMNEALEKQLQELEDKQNADISAMQDTINKLENELRSTKSEMARYLKEYQDLLNVKMALDIEIAAYRKLLEGEETRLSFTSVGSITSGYSQSSQVFGRSAYSGLQSSSYLMSARSFPAYYTSHVQEEQTEVEETIEATKAEEAKDEPPSEGEAEEEEKEKEEGEEEEGAEEEEAAKDESEDTKEEEEGGEGEEEDTKESEEEEKKEESAGEEQVAKKKD
modifications: native post-translational phosphorylation (varying levels, sites not given); N-terminal carbamoylation observed from the urea conditions
Q: Does B1 bind?
A: Result: binds
